Biological target: the molecule itself
Assay: dynamic light scattering; purified β‐CN in 10 mM sodium phosphate buffer at pH 5.5 and pH 5.0, room temperature; aggregates, micelles of 100 nm at pH 5.0

B1: native β‐casein purified from buffalo milk (natural protein, buffalo (purified from buffalo milk), UniProt Q9TSI0 16-224, looked up)
chain: RELEELNVPGEIVESLSSSEESITHINKKIEKFQSEEQQQMEDELQDKIHPFAQTQSLVYPFPGPIPKSLPQNIPPLTQTPVVVPPFLQPEIMGVSKVKEAMAPKHKEMPFPKYPVEPFTESQSLTLTDVENLHLPLPLLQSWMHQPPQPLPPTVMFPPQSVLSLSQSKVLPVPQKAVPYPQRDMPIQAFLLYQEPVLGPVRGPFPIIV
notes: β‐casein of buffalo milk (water buffalo), native protein purified from milk; single band of approximately 25 kDa on SDS-PAGE; Native milk protein; also called β‐CN; buffalo β‐CN
binding result: binds

Source: PMC8121154, “The effects of pH and NaCl concentration on the structure of β‐casein from buffalo milk” (Food Science & Nutrition, 2021)
